This experiment addresses recombinant human full-length BIN1 isoform 8 (human).

In the case of “recombinant ezrin wild-type (from UniProt P15311 1-586) (natural protein)”, the relative membrane binding of Alexa488-ezrin on supported lipid bilayers with 5% PI(4,5)P2 in the presence of 0.1 µM BIN1 iso8, normalized to ezrin without BIN1 (confocal intensity) stood at 2.5 fold.
With “recombinant ezrin T567D (from UniProt P15311 1-586) (natural protein)”, the relative membrane binding of Alexa488-ezrin-T567D on supported lipid bilayers with 5% PI(4,5)P2 in the presence of 0.1 µM BIN1 iso8, normalized to ezrin-T567D without BIN1 (confocal intensity) amounted to 1.5 fold.

The values are drawn from PMC11082164.
